The record followed here is patent publication US20180072807A1 (UNIVERSITAT STUTTGART, published 2018).

Assay [1] addresses T1, proapoptotic TRAIL receptor DR4 (TRAIL R1) (UniProt O00220 24-468, limits assumed).
T1 construct: whole, on cells; Endogenous receptor on cell lines
Nature of the assay: flow cytometry on EGFR low/negative HepG2 cells; detection with anti-TRAIL mAb. (In general: In flow cytometry, cells or beads pass a laser one at a time.)

Assay [2] has as its target EGF receptor (EGFR, erbB1) (human, UniProt P00533 25-1210). Nature of the assay: cell-based or functional assay.
Assay [3] addresses T2, human serum albumin (human, UniProt P02768 25-609).
T2 construct: also called HSA
Nature of the assay: size exclusion chromatography after incubation with albumin. On the technique in general: SEC sorts molecules by how far they enter the pores of the column.

Assay [4] concerns the target T3, mouse serum albumin (mouse, UniProt P07724 25-608).
T3 construct: also called MSA
The description is as above.

B1: EGFR-specific TRAIL fusion protein according to SEQ ID NO: 102 (FLAG tag, huC225 VH, GGGGS linker L, VL, linker X, scTRAIL) (other)
chain: LEASDYKDDDDKGAEVQLVESGGGLVQPGGSLRLSCAASGFSLTNYGVHWVRQAPGKGLEWLGVIWSGGNTDYNTPFTSRFTISRDNSKNTLYLQMNSLRAEDTAVYYCARALTYYDYEFAYWGQGTTVTVSSGGGGSDIQLTQSPSFLSASVGDRVTITCRASQSIGTNIHWYQQKPGKAPKLLIKYASESISGVPSRFSGSGSGTEFTLTISSLQPEDFATYYCQQNNNWPTTFGAGTKLEIKRAAAEFTRGTSEETISTVQEKQQNISPLVRERGPQRVAAHITGTRGRSNTLSSPNSKNEKALGRKINSWESSRSGHSFLSNLHLRNGELVIHEKGFYYIYSQTYFRFQEEIKENTKNDKQMVQYIYKYTSYPDPILLMKSARNSCWSKDAEYGLYSIYQGGIFELKENDRIFVSVTNEHLIDMDHEASFFGAFLVGGGGSGGGSTSEETISTVQEKQQNISPLVRERGPQRVAAHITGTRGRSNTLSSPNSKNEKALGRKINSWESSRSGHSFLSNLHLRNGELVIHEKGFYYIYSQTYFRFQEEIKENTKNDKQMVQYIYKYTSYPDPILLMKSARNSCWSKDAEYGLYSIYQGGIFELKENDRIFVSVTNEHLIDMDHEASFFGAFLVGGGGSGGGSTSEETISTVQEKQQNISPLVRERGPQRVAAHITGTRGRSNTLSSPNSKNEKALGRKINSWESSRSGHSFLSNLHLRNGELVIHEKGFYYIYSQTYFRFQEEIKENTKNDKQMVQYIYKYTSYPDPILLMKSARNSCWSKDAEYGLYSIYQGGIFELKENDRIFVSVTNEHLIDMDHEASFFGAFLVG
notes: Made in HEK293 cells; The FLAG tag was kept for purification; also called divalent TRAIL fusion protein; dimeric TRAIL fusion protein
Take B1: the binding result in assay [1] is “binds”.

B2: EGFR-specific TRAIL fusion protein of SEQ ID NO: 96 (FLAG tag, huC225 VH, (GGGGS)3 linker L, VL, linker X, scTRAIL) (other)
chain: LEASDYKDDDDKGAEVQLVESGGGLVQPGGSLRLSCAASGFSLTNYGVHWVRQAPGKGLEWLGVIWSGGNTDYNTPFTSRFTISRDNSKNTLYLQMNSLRAEDTAVYYCARALTYYDYEFAYWGQGTTVTVSSGGGGSGGGGSGGGGSDIQLTQSPSFLSASVGDRVTITCRASQSIGTNIHWYQQKPGKAPKLLIKYASESISGVPSRFSGSGSGTEFTLTISSLQPEDFATYYCQQNNNWPTTFGAGTKLEIKRAAAEFTRGTSEETISTVQEKQQNISPLVRERGPQRVAAHITGTRGRSNTLSSPNSKNEKALGRKINSWESSRSGHSFLSNLHLRNGELVIHEKGFYYIYSQTYFRFQEEIKENTKNDKQMVQYIYKYTSYPDPILLMKSARNSCWSKDAEYGLYSIYQGGIFELKENDRIFVSVTNEHLIDMDHEASFFGAFLVGGGGSGGGSTSEETISTVQEKQQNISPLVRERGPQRVAAHITGTRGRSNTLSSPNSKNEKALGRKINSWESSRSGHSFLSNLHLRNGELVIHEKGFYYIYSQTYFRFQEEIKENTKNDKQMVQYIYKYTSYPDPILLMKSARNSCWSKDAEYGLYSIYQGGIFELKENDRIFVSVTNEHLIDMDHEASFFGAFLVGGGGSGGGSTSEETISTVQEKQQNISPLVRERGPQRVAAHITGTRGRSNTLSSPNSKNEKALGRKINSWESSRSGHSFLSNLHLRNGELVIHEKGFYYIYSQTYFRFQEEIKENTKNDKQMVQYIYKYTSYPDPILLMKSARNSCWSKDAEYGLYSIYQGGIFELKENDRIFVSVTNEHLIDMDHEASFFGAFLVG
notes: also called VH-VL-scTRAIL
For B2, in assay [1], the binding result was “binds”. For the same molecule, in assay [2], the “apoptosis-inducing activity on EGFR-positive Huh-7 cells compared to scTRAIL (SEQ ID NO: 104)” value was 10 fold.

B3: dimeric EGFR-specific TRAIL fusion protein of SEQ ID NO: 126 with an albumin binding domain (ABD) at the C-terminus (other)
chain: LEASDYKDDDDKGAEVQLVESGGGLVQPGGSLRLSCAASGFSLTNYGVHWVRQAPGKGLEWLGVIWSGGNTDYNTPFTSRFTISRDNSKNTLYLQMNSLRAEDTAVYYCARALTYYDYEFAYWGQGTTVTVSSGGGGSDIQLTQSPSFLSASVGDRVTITCRASQSIGTNIHWYQQKPGKAPKLLIKYASESISGVPSRFSGSGSGTEFTLTISSLQPEDFATYYCQQNNNWPTTFGAGTKLEIKRAAAGNGTSNGTSEFTRGTSEETISTVQEKQQNISPLVRERGPQRVAAHITGTRGRSNTLSSPNSKNEKALGRKINSWESSRSGHSFLSNLHLRNGELVIHEKGFYYIYSQTYFRFQEEIKENTKNDKQMVQYIYKYTSYPDPILLMKSARNSCWSKDAEYGLYSIYQGGIFELKENDRIFVSVTNEHLIDMDHEASFFGAFLVGGGGSGGGSTSEETISTVQEKQQNISPLVRERGPQRVAAHITGTRGRSNTLSSPNSKNEKALGRKINSWESSRSGHSFLSNLHLRNGELVIHEKGFYYIYSQTYFRFQEEIKENTKNDKQMVQYIYKYTSYPDPILLMKSARNSCWSKDAEYGLYSIYQGGIFELKENDRIFVSVTNEHLIDMDHEASFFGAFLVGGGGSGGGSTSEETISTVQEKQQNISPLVRERGPQRVAAHITGTRGRSNTLSSPNSKNEKALGRKINSWESSRSGHSFLSNLHLRNGELVIHEKGFYYIYSQTYFRFQEEIKENTKNDKQMVQYIYKYTSYPDPILLMKSARNSCWSKDAEYGLYSIYQGGIFELKENDRIFVSVTNEHLIDMDHEASFFGAFLVGGGSGGQHDEAVDANSLAEAKVLANRELDKYGVSDYYKNLINNAKTVEGVKALIDEILAALP
Turning to B3, the binding result in assay [3] and in assay [4] was “binds” throughout.

B4: dimeric EGFR-specific TRAIL fusion protein of SEQ ID NO: 125 with an albumin binding domain (ABD) between component B and components A (other)
chain: LEASDYKDDDDKGAEVQLVESGGGLVQPGGSLRLSCAASGFSLTNYGVHWVRQAPGKGLEWLGVIWSGGNTDYNTPFTSRFTISRDNSKNTLYLQMNSLRAEDTAVYYCARALTYYDYEFAYWGQGTTVTVSSGGGGSDIQLTQSPSFLSASVGDRVTITCRASQSIGTNIHWYQQKPGKAPKLLIKYASESISGVPSRFSGSGSGTEFTLTISSLQPEDFATYYCQQNNNWPTTFGAGTKLEIKRGGSQHDEAVDANSLAEAKVLANRELDKYGVSDYYKNLINNAKTVEGVKALIDEILAALPAAAGNGTSNGTSEFTRGTSEETISTVQEKQQNISPLVRERGPQRVAAHITGTRGRSNTLSSPNSKNEKALGRKINSWESSRSGHSFLSNLHLRNGELVIHEKGFYYIYSQTYFRFQEEIKENTKNDKQMVQYIYKYTSYPDPILLMKSARNSCWSKDAEYGLYSIYQGGIFELKENDRIFVSVTNEHLIDMDHEASFFGAFLVGGGGSGGGSTSEETISTVQEKQQNISPLVRERGPQRVAAHITGTRGRSNTLSSPNSKNEKALGRKINSWESSRSGHSFLSNLHLRNGELVIHEKGFYYIYSQTYFRFQEEIKENTKNDKQMVQYIYKYTSYPDPILLMKSARNSCWSKDAEYGLYSIYQGGIFELKENDRIFVSVTNEHLIDMDHEASFFGAFLVGGGGSGGGSTSEETISTVQEKQQNISPLVRERGPQRVAAHITGTRGRSNTLSSPNSKNEKALGRKINSWESSRSGHSFLSNLHLRNGELVIHEKGFYYIYSQTYFRFQEEIKENTKNDKQMVQYIYKYTSYPDPILLMKSARNSCWSKDAEYGLYSIYQGGIFELKENDRIFVSVTNEHLIDMDHEASFFGAFLVG
On to B4, for which the binding result in assay [3] and in assay [4] was “binds” throughout.
